Laboratory results as given in patent US11998613B2, “Antibody-drug conjugates containing an anti-mesothelin antibody and uses thereof” (DEVELOPMENT CENTER FOR BIOTECHNOLOGY, priority 2020, dated 2024).
Where two headings read alike, the source gives them in different places. Non-standard residues stand in square brackets, D forms with d. Residues, ends and D or L forms follow the SMILES beside them. *: point of attachment. Dolaproine = CO[C@@H]([C@@H]1CCCN1)[C@@H](C)C(=O)O; Dil = CC[C@H](C)[C@H](NC)[C@@H](CC(=O)O)OC; X1 = C[C@@H](N*)[C@@H](O)c1ccccc1; NMeV = CN[C@H](C(=O)O)C(C)C

Columns and labels:
mesothelin protein = mesothelin protein (Homo sapiens, UniProt Q13421); assay: Affinity measurements and kinetic analysis using BIAcore (SPR), mesothelin immobilised; type: binding
Sequence of mesothelin protein (Q13421 with tags, fused parts or gaps): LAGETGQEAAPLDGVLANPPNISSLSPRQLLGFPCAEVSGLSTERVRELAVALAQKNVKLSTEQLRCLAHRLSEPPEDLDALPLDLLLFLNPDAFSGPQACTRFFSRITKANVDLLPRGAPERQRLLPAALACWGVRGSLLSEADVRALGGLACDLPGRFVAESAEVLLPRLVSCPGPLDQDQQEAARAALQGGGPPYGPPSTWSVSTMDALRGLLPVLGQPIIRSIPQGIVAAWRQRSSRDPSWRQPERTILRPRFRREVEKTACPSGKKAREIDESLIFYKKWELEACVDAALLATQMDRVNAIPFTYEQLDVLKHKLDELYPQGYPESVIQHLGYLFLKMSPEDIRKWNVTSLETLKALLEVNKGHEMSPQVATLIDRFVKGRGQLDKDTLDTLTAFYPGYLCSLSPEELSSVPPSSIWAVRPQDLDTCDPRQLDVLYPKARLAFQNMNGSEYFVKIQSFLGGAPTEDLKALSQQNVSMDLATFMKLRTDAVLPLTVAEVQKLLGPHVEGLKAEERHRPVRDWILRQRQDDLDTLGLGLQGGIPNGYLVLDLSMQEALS
Procedure: To know the biding kinetics difference among individual antibodies, surface plasmon resonance (SPR) measurement with a BIAcore T200 (Cytiva Inc.) was used as previously described (Karlsson & Falt, (1997) J. Immunol Methods 200:121-133). Carboxymethylated dextran biosensor chips (CM5, Cytiva Inc.) were activated with N-ethyl-N′-(3-dimethylaminopropyl)-carbodiimide hydrochloride (EDC) and N-hydroxysuccinimide (NHS) according to the supplier's instructions. Mesothelin protein was diluted with 10 mM sodium acetate, pH 4.0, into 5 μg/ml before injection at a flow rate of 10 μL/minute to achieve approximately 1500 response units (RU) of coupled protein followed by the injection of 1M ethanolamine to block unreacted groups. For kinetics measurements, two-fold serial dilutions of anti-mesothelin mAb (0.3125 nM to 40 nM) were injected in HBS-EP+ Biacore running buffer provided by the manufacturer (Cytiva Inc.) at 25 degree C. at a flow rate of 30 μL/min, and binding responses on the mesothelin protein were corrected by subtraction of responses on a blank flow cell. Association rates (kon or ka) and dissociation rates (koff or kd) were calculated using a simple one-to-one Langmuir binding model with separate fittings of kon and koff was used. (Cytiva.™. Biacore Insight Evaluation Software).

[1] = tested on: Pancreatic cancer cell line KLM-1 (MSLN+); assay: In vitro cytotoxicity, CellTiter-Glo luminescent cell viability assay, KLM-1; type: cell-based, human; conditions: KLM-1, 72 hours treatment; read-out: Relative IC50 (nM of toxic payload/ADCs)
Procedure: (§1) Pancreatic cancer cell line KLM-1 was respectively grown in RPMI 1640 Medium (ATCC modification) medium supplemented with 10% fetal bovine serum. Ovarian carcinoma cell line OVCAR-3 was grown in RPMI 1640 Medium (ATCC modification) medium supplemented with 20% fetal bovine serum. The KLM-1 & OVCAR-3 cell lines were maintained in an atmosphere of 5% CO2 in a humidified 37° C. incubator. The day before treatment, cells were collected and seeded into 96-well plates (4,000 cells per well). On the second day, cells were treated with 3-fold serial dilution concentration of toxic payloads and ADCs. Each treatment was performed in eight triplicate data points. After the treatment of 72 hours, cell viability was assessed by CellTiter-Glo® kit (Promega) according to the manufacturer's instruction. At the end of the incubation, luminescence was measured using a SpectraMax i3x Multi Mode Detection Platform (Molecular Devices). Compound cytotoxicity was evaluated in comparison to cells treated with 0.05% PBS (ADCs) or 0.05% DMSO (toxic payload). IC50 values were calculated by fitting viability data with a four-parameter logistic equation using GraphPad prism 5.0 software.

[2] = tested on: Ovarian carcinoma cell line OVCAR-3 (MSLN+); assay: In vitro cytotoxicity, CellTiter-Glo luminescent cell viability assay, OVCAR-3; type: cell-based, human; conditions: read-out: Relative IC50 (nM of toxic payload/ADCs)
Procedure: as §1, with “The” for “Pancreatic cancer cell line KLM-1 was respectively grown in RPMI 1640 Medium (ATCC modification) medium supplemented with 10% fetal bovine serum. Ovarian carcinoma cell line OVCAR-3 was grown in RPMI 1640 Medium (ATCC modification) medium supplemented with 20% fetal bovine serum. The”

[3] = tested on: KLM-1 human pancreatic cancer xenograft; assay: KLM-1 xenograft model (Example 45); conditions: 15 mg/kg IV once weekly for 3 weeks
Procedure: Formulations respectively comprising test article DCBPR2002-4(DBCO-vc-MMAE)(15 mg/kg), test article DCBPR2002-4(DBCO-vc-seco-DUBA)(15 mg/kg), test article DCBPR2002-4(DBCO-s-DM1) (15 mg/kg), test article DCBPR2002-2(DBCO-vc-MMAE)-2(DBCO-vc-seco-DUBA) (15 mg/kg), test article DCBPR2002-2(DBCO-vc-MMAE)-2(DBCO-s-DM1) (15 mg/kg), test article DCBPR2002-2(DBCO-vc-seco-DUBA)-2(DBCO-s-DM1) (15 mg/kg), and a corresponding vehicle were formulated by diluting the stock with a 25 mM sodium citrate buffer (pH6.5). Each of the formulations was administered intravenously (IV) once weekly for three weeks.
The KLM-1 cells were maintained in vitro as a monolayer culture in RPMI-1640 medium supplemented with 10% fetal bovine serum at 37° C. in an atmosphere of 5% CO2 in air. The tumor cells were routinely sub-cultured twice weekly by trypsin-EDTA treatment. The cells growing in an exponential growth phase were harvested and counted for tumor inoculation.
Male NOD SCID mice at age of 6-7 weeks were purchased from BioLasco Taiwan Co., LTD. and quarantined for one week. Five mice were housed in each cage. All animals were hosted in the animal facility with a 12-h light/12-h dark cycle at 19-25° C. Animals had free access to rodent pellet foods and water ad libitum.
KLM-1 cells were subcutaneously (SC) implanted (4×10^6 cells in 1:1 PBS/matrigel mixture at 0.1 mL per mouse) into the right flank of male NOD SCID mice. When the average tumor volume had reached 300 mm^3, the mice were randomly divided into 7 groups (N=6 per group). Each of the vehicle, DCBPR2002-4(DBCO-vc-MMAE), DCBPR2002-4(DBCO-vc-seco-DUBA), DCBPR2002-4(DBCO-s-DM1), DCBPR2002-2(DBCO-vc-MMAE)-2(DBCO-vc-seco-DUBA), DCBPR2002-2(DBCO-vc-MMAE)-2(DBCO-s-DM1), DCBPR2002-2(DBCO-vc-seco-DUBA)-2(DBCO-s-DM1) was intravenously administered as 15 mg/kg once weekly for 3 weeks.
The tumor volumes, body weights, mortality, and signs of overt toxicity were monitored and recorded three times weekly for 28 days. Tumor volumes were measured three times per week using calipers and calculated according to the formula: Tumor Volume=(w2×l)/2, where w=width and l=length in diameter (mm) of the tumor. […] One-way ANOVA followed by Dunnett's test was applied for comparison between the vehicle and test article-treated groups. Differences are considered significant at *P<0.05. Animals were weighed three times weekly until the completion of the study.

[4] = BIAcore T200, 25 degree C, 1:1 Langmuir model

Row | Molecule | IC50 [1] | IC50 ([2]; OVCAR-3, 72 hours treatment) | body weight changes [3] | ranking of efficacy potency [3] | also measured
1 | SS1: mouse anti-mesothelin antibody clone SS1, SEQ ID NOs: 7 and 8, of U.S. Pat. No. 7,081,518 B1; expressed as human Fc chimera [reference compound] | – | – | – | – | Rmax(RU) (mesothelin protein; BIAcore T200): 218.2 RU; ka (mesothelin protein; [4]): 3.415e+06 M⁻¹ s⁻¹; kd (mesothelin protein; [4]): 1.194e-05 s⁻¹; kd (mesothelin protein; BIAcore T200, 25 degree C, 1:1 Langmuir model, listed as chimera SS1 mAb): 1.194e-05 s⁻¹
2 | CC[C@H](C)[C@@H]([C@@H](CC(=O)N1CCC[C@H]1[C@H](OC)[C@@H](C)C(=O)N[C@H](C)[C@@H](O)c1ccccc1)OC)N(C)C(=O)[C@@H](NC(=O)[C@@H](NC)C(C)C)C(C)C [MMAE, monomethyl auristatin E, reference compound] (H-[NMeV]V[Dil][Dolaproine]-X1) | 0.3 nM | 0.3 nM | – | – | –
3 | CC[C@@]1(O)C(=O)OCc2c1cc1n(c2=O)Cc2c-1nc1cc(F)c(C)c3c1c2[C@@H](NC(=O)CO)CC3 [DXd, reference compound] | – | > 100 nM | – | – | –
4 | COc1cc2cc(c1Cl)N(C)C(=O)C[C@H](OC(=O)[C@H](C)N(C)C(=O)CCS)[C@]1(C)O[C@H]1[C@H](C)[C@@H]1C[C@@](O)(NC(=O)O1)[C@H](OC)/C=C/C=C(\C)C2 [DM1, reference compound] | 2.1 nM | 1.6 nM | – | – | –
5 | CC[C@@]1(O)C(=O)OCc2c1cc1n(c2=O)Cc2c-1nc1cc(F)c(C)c3c1c2[C@@H](N)CC3 [Exatecan, reference compound] | – | – | – | – | IC50 ([2]; Homo sapiens, OVCAR-3, 72 h): 20.1 nM
6 | DCBPR2002-2(DBCO-vc-seco-DUBA)-2(DBCO-s-DM1): dual-payload ADC: DCBPR2002-2(DBCO-vc-seco DUBA)-2Az reacted with DBCO-S-DM1; DAR ~4 (conjugate) VH: QVQLVQSGAEVKKPGASVKVSCKASGYSFTGYTMNWVRQAPGQGLEWMGLITPYNGASSYNQKFRGRVTMTRDTSISTAYMELSRLRSDDTAVYYCARGGYDGRGFDYWGQGTLVTVSS VL: EIVLTQSPATLSLSPGERATLSCSASSSVSYMHWYQQKPGQAPRLLIYDTSKLASGIPARFSGSGSGTDFTLTISSLEPEDFAVYYCQQWSKHPLTFGQGTKVEIKR | 27 nM | 36.3 nM | No body weight loss was observed | DCBPR2002-4(DBCO-vc-seco-DUBA)=DCBPR2002-2(DBCO-vc-MMAE)-2(DBCO-vc-seco-DUBA)=DCBPR2002-2(DBCO-vc-seco-DUBA)-2(DBCO-s-DM1)>DCBPR2002-4(DBCO-vc-MMAE)>DCBPR2002-2(DBCO-vc-MMAE)-2(DBCO-s-DM1)>DCBPR2002-4(DBCO-s-DM1) | –
7 | DCBPR2002-2(DBCO-vc-MMAE)-2(DBCO-s-DM1): dual-payload ADC: DCBPR2002-2(DBCO-vc-MMAE)-2Az reacted with DBCO-S-DM1; DAR ~4 (conjugate) VH: QVQLVQSGAEVKKPGASVKVSCKASGYSFTGYTMNWVRQAPGQGLEWMGLITPYNGASSYNQKFRGRVTMTRDTSISTAYMELSRLRSDDTAVYYCARGGYDGRGFDYWGQGTLVTVSS VL: EIVLTQSPATLSLSPGERATLSCSASSSVSYMHWYQQKPGQAPRLLIYDTSKLASGIPARFSGSGSGTDFTLTISSLEPEDFAVYYCQQWSKHPLTFGQGTKVEIKR | 15.4 nM | 4.6 nM | No body weight loss was observed | DCBPR2002-4(DBCO-vc-seco-DUBA)=DCBPR2002-2(DBCO-vc-MMAE)-2(DBCO-vc-seco-DUBA)=DCBPR2002-2(DBCO-vc-seco-DUBA)-2(DBCO-s-DM1)>DCBPR2002-4(DBCO-vc-MMAE)>DCBPR2002-2(DBCO-vc-MMAE)-2(DBCO-s-DM1)>DCBPR2002-4(DBCO-s-DM1) | –
8 | DCBPR2002-4(DBCO-s-DM1) (conjugate) VH: QVQLVQSGAEVKKPGASVKVSCKASGYSFTGYTMNWVRQAPGQGLEWMGLITPYNGASSYNQKFRGRVTMTRDTSISTAYMELSRLRSDDTAVYYCARGGYDGRGFDYWGQGTLVTVSS VL: EIVLTQSPATLSLSPGERATLSCSASSSVSYMHWYQQKPGQAPRLLIYDTSKLASGIPARFSGSGSGTDFTLTISSLEPEDFAVYYCQQWSKHPLTFGQGTKVEIKR | 13.9 nM | 2.6 nM | No body weight loss was observed | DCBPR2002-4(DBCO-vc-seco-DUBA)=DCBPR2002-2(DBCO-vc-MMAE)-2(DBCO-vc-seco-DUBA)=DCBPR2002-2(DBCO-vc-seco-DUBA)-2(DBCO-s-DM1)>DCBPR2002-4(DBCO-vc-MMAE)>DCBPR2002-2(DBCO-vc-MMAE)-2(DBCO-s-DM1)>DCBPR2002-4(DBCO-s-DM1) | –
